# Assay results as given in publication PMC2959088.
# Assays:
# [1] = molecular target: human cathepsin B (human); assay: enzyme inhibition assay (residual activity on the fluorogenic substrate Z-Phe-Arg-MCA); cathepsin B or L (0.3 nM) incubated 5 min at 37°C with varied inhibitor in 100 mM sodium acetate pH 5.5, 2.5 mM DTT; substrate 0.01 mM; triplicate; Ki(app) by non linear regression (GraFit), Ki by Morrison's procedure
# [2] = molecular target: human cathepsin L (human); assay: as above
# Sequence of Oryzacystatin-1 (P09229 39-140): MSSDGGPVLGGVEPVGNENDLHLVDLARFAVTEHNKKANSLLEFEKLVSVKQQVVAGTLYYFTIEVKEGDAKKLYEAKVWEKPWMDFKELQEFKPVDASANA
Substance,Ki [1],Ki [2]
Oryzacystatin-1 (from UniProt P09229 39-140) (natural protein),78.5 nM,–
"Reverse Mutant 3 (T30I, Q97L) (designed binder)",–,12.5 nM
Canecystatin-1 (natural protein),87.6 nM,0.1 nM
Reverse Mutant 1 (T30I) (designed binder),–,1.93 nM
Reverse Mutant 2 (Q97L) (designed binder),–,11.7 nM
